Patent US20240043533A1 (NGM BIOPHARMACEUTICALS, published 2024)

Assays:
[1] = molecular target: T1, extracellular domain of cyno ILT3 (cynoILT3-ECD) (cynomolgus monkey); test: SPR (Biacore), antibody captured via anti-Fc on CM5 chip, soluble ILT3-ECD injected, 37 C
T1 chain: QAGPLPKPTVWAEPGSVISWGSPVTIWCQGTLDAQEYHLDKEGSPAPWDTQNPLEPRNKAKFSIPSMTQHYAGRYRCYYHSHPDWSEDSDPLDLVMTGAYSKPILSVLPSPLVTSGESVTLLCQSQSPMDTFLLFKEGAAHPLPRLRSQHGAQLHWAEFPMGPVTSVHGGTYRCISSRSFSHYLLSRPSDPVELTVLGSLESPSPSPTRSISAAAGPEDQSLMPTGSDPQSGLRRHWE
Experimental: (§1) The binding affinities of anti-ILT3 antibodies to human ILT3 and cyno ILT3 were measured using a Biacore system (GE Healthcare LifeSciences). Briefly, anti-Fc antibody (Sigma-Aldrich) was immobilized on all four flow cells of a CM5 chip using amine coupling reagents (GE Healthcare LifeSciences). Antibodies were captured on flow cells 2, 3, and 4 using flow cell 1 as a reference. Concentrations ranging from 3.3-10 nM of human or cyno ILT3-ECD were injected at a flow rate of 50 μL/min at 37° C. Kinetic data were collected over time and fit using the simultaneous global fit equation to yield affinity constants (KD values) for each antibody.

[2] = molecular target: T2, extracellular domain of human ILT3 (huILT3-ECD) (human, UniProt Q8NHJ6 22-259); test: as above
T2 construct: also called human ILT3-ECD
Experimental: as §1

[3] = molecular target: T1, extracellular domain of cyno ILT3 …; test: SPR (Biacore), antibody captured via anti-Fc on CM5 chip, soluble ILT3-ECD injected
Experimental: as §1
(§2) The binding affinities of various Hz48A6 and Hz45G10 antibodies to human ILT3 and cyno ILT3 were also determined using a Biacore system as described herein. Humanized antibodies comprising various combinations of a heavy chain variable region and a light chain variable region and a human Fc domain were tested, and compared with the binding affinity of the parental chimeric antibody (48A6 chimera comprising mouse 48A6 heavy and light variable regions and a human Fc domain, or 45G10 chimera comprising mouse 45G10 heavy and light variable regions and a human Fc domain).

[4] = molecular target: T2, extracellular domain of human ILT3 …; test: as above
Experimental: as §1, §2

[5] = molecular target: T1, extracellular domain of cyno ILT3 …; test: SPR (Biacore), antibody captured via anti-Fc on CM5 chip, soluble ILT3-ECD injected, 37 C
Experimental: as §1
(§3) The binding affinity of Hz5A7.v5 to human ILT3 and cyno ILT3 was determined using a Biacore system as described herein and compared with the binding affinity of the parental chimeric 5A7 (ch5A7) antibody and humanized 5A7 without any CDR modifications (Hz5A7.v1) (see Table 12).

[6] = molecular target: T2, extracellular domain of human ILT3 …; test: as above; remark: listed apart in the source
Experimental: as §1, §3

B1: anti-ILT3 antibody 12A12 (antibody, V domains shown)
VH: EVQLQQSGPELVKPGASVKISCKASGYTFTDYNMDWVKQSHGKSLEWIGYIYPNNGGTGYNQKFNSKATLTVDKSSSTAYMELHSLTSEDSAVYYCASSPYYDYVGSYAMDYWGQGTSVTVSS
VL: QIVLTQSPAIMSASLGERVTMTCTASSSVSSSYLHWYQQKPGSSPKLWIYSTSNLASGVPARFSGSGSGTSYSLTISSMEAEDAATYYCHQYHRSPRTFGGGTKLEIK
notes: Mouse monoclonal antibody from hybridoma
Kd [1]: 1.9 nM
koff [1]: 0.00028 s⁻¹
kon [1]: 150000 M⁻¹ s⁻¹
Kd [2]: 8.5 nM
koff [2]: 0.00094 s⁻¹
kon [2]: 110000 M⁻¹ s⁻¹

B2: Hz48A6 C1/C2 (antibody, V domains shown)
VH: EVQLVESGGGLVQPGGSLRLSCAASGFTFSSYGMSWVRQAPGKGLEWVATISSGGTYTFYPDSVKGRFTISRDNSKNTLYLQMNSLRAEDTAVYYCARRGWLLHYYAMDYWGQGTLVTVSS
VL: DIQLTQSPSFLSASVGDRVTITCRPSESVDSFGNSFMHWFQQKPGKAPKLLIYLSSKLESGVPSRFSGSGSGTEFTLTISSLQPEDFATYYCQQHNEDPFTFGQGTKVEIK
Kd [3]: 770 nM
koff [3]: 0.088 s⁻¹
kon [3]: 114000 M⁻¹ s⁻¹
Kd [4]: 0.26 nM
koff [4]: 0.000705 s⁻¹
kon [4]: 2.72e+06 M⁻¹ s⁻¹

B3: Hz5A7.v1 (humanized 5A7 without any CDR modifications) (antibody, V domains shown)
VH: EVQLVESGGGLVQPGGSLRLSCAASGFTFSSYGMSWVRQAPGKGLEWVATISGGGSYTNYPDSVKGRFTISRDNAKNSLYLQMNSLRAEDTAVYYCARREWRMTLYAMDYWGQGTTVTVSS
VL: DIQLTQSPSFLSASVGDRVTITCRASESVDSYGNSFMHWYQQKPGKAPKLLIYLTSNLESGVPSRFSGSGSGTEFTLTISSLQPEDFATYYCQQNNEDPFTFGQGTKLEIK
Kd [5]: 0.65 nM
koff [5]: 0.0077 s⁻¹
kon [5]: 1.2e+07 M⁻¹ s⁻¹
Kd [6]: 0.48 nM
koff [6]: 0.0012 s⁻¹
kon [6]: 2.5e+06 M⁻¹ s⁻¹

B4: Hz48A6 B1/C2 (antibody, V domains shown)
VH: EVQLVESGGGLMQPGGSLRLSCAASGFTFSSYGMSWVRQAPGKGLEWVATISSGGTYTFYPDSVKGRFTISRDNAKNSLYLQMNSLRAEDTAVYYCARRGWLLHYYAMDYWGQGTSVTVSS
VL: DIQLTQSPSFLSASVGDRVTITCRPSESVDSFGNSFMHWFQQKPGKAPKLLIYLSSKLESGVPSRFSGSGSGTEFTLTISSLQPEDFATYYCQQHNEDPFTFGQGTKVEIK
Kd [3]: 531 nM
koff [3]: 0.092 s⁻¹
kon [3]: 174000 M⁻¹ s⁻¹
Kd [4]: 0.25 nM
koff [4]: 0.000764 s⁻¹
kon [4]: 3.05e+06 M⁻¹ s⁻¹

B5: Hz48A6 C2/C2 (antibody, V domains shown)
VH: EVQLVESGGGLMQPGGSLRLSCAASGFTFSSYGMSWVRQAPGKGLEWVATISSGGTYTFYPDSVKGRFTISRDNSKNTLYLQMNSLRAEDTAVYYCARRGWLLHYYAMDYWGQGTLVTVSS
VL: DIQLTQSPSFLSASVGDRVTITCRPSESVDSFGNSFMHWFQQKPGKAPKLLIYLSSKLESGVPSRFSGSGSGTEFTLTISSLQPEDFATYYCQQHNEDPFTFGQGTKVEIK
Kd [3]: 377 nM
koff [3]: 0.082 s⁻¹
kon [3]: 217000 M⁻¹ s⁻¹
Kd [4]: 0.24 nM
koff [4]: 0.000752 s⁻¹
kon [4]: 3.06e+06 M⁻¹ s⁻¹

B6: Hz48A6 B0/C2 (antibody, V domains shown)
VH: EVQLVESGGGLVQPGGSLRLSCAASGFTFSSYGMSWVRQAPGKGLEWVATISSGGTYTFYPDSVKGRFTISRDNAKNSLYLQMNSLRAEDTAVYYCARRGWLLHYYAMDYWGQGTSVTVSS
VL: DIQLTQSPSFLSASVGDRVTITCRPSESVDSFGNSFMHWFQQKPGKAPKLLIYLSSKLESGVPSRFSGSGSGTEFTLTISSLQPEDFATYYCQQHNEDPFTFGQGTKVEIK
Kd [3]: 455 nM
koff [3]: 0.097 s⁻¹
kon [3]: 213000 M⁻¹ s⁻¹
Kd [4]: 0.28 nM
koff [4]: 0.000784 s⁻¹
kon [4]: 2.8e+06 M⁻¹ s⁻¹

B7: Hz48A6 C0/C2 (antibody, V domains shown)
VH: EVQLVESGGGLVQPGGSLRLSCAASGFTFSSYGMSWVRQAPGKGLEWVGTISSGGTYTFYPDSVKGRFTISRDNSKNTLYLQMNSLRAEDTAVYYCARRGWLLHYYAMDYWGQGTLVTVSS
VL: DIQLTQSPSFLSASVGDRVTITCRPSESVDSFGNSFMHWFQQKPGKAPKLLIYLSSKLESGVPSRFSGSGSGTEFTLTISSLQPEDFATYYCQQHNEDPFTFGQGTKVEIK
Kd [3]: 177 nM
koff [3]: 0.058 s⁻¹
kon [3]: 327000 M⁻¹ s⁻¹
Kd [4]: 0.16 nM
koff [4]: 0.000541 s⁻¹
kon [4]: 3.45e+06 M⁻¹ s⁻¹

B8: anti-ILT3 antibody 3A3 (antibody, V domains shown)
VH: QVQLKESGPGLVAPSQSLSITCTVSGFSLTSYGVHWVRQPPGKGLEWLGVIWPGGTINYNSALMSRLSISKDNSKSQVFLKLNSLQTDDTAMYYCASDKYDGGWFAYWGQGTLVTVSA
VL: DIVMTQSQKFMSTSVGDRVSITCKASQNVRTAVAWYQQKPGQSPEALIYLASNRHTGVPDRFTGSGSGTDFSLSISNVQSEDLADYFCLQHLNYPLTFGSGTKLEIK
notes: as for B1
Kd [1]: 6.3 nM
koff [1]: 0.021 s⁻¹
kon [1]: 3.4e+06 M⁻¹ s⁻¹
Kd [2]: 2 nM
koff [2]: 0.00065 s⁻¹
kon [2]: 330000 M⁻¹ s⁻¹

B9: 48A6 chimera (antibody, V domains shown)
VH: EVQLVESGGDLMKPGGSLKLSCAASGFTFSSYGMSWVRQTPDKRLEWVATISSGGTYTFYPDSVKGRFTISRDNAKNTLYLQMSSLKSEDTAMYYCARRGWLLHYYAMDYWGQGTSVTVSS
VL: NIVLTQSPASLAVSLGQRATISCRPSESVDSFGNSFMHWFQQKPGQPPKLLIYLSSKLESGVPARFSGSGSRTDFTLTIDPVEADDAATYYCQQHNEDPFTFGSGTKLEIK
notes: also called parental chimeric 48A6
Kd [3]: 54 nM
koff [3]: 0.11 s⁻¹
kon [3]: 1.99e+06 M⁻¹ s⁻¹
Kd [4]: 0.066 nM
koff [4]: 0.000868 s⁻¹
kon [4]: 1.31e+07 M⁻¹ s⁻¹

B10: 45G10 chimera (antibody, V domains shown)
VH: EVQLVESGGGLVKPGGSLKLSCAASGFTFSDYGMHWVRQAPEKGLEWVAYIFSGSSTIYYADTVKGRFTISRDNAKNTLFLQMTSLRSEDTAMYYCARADGRGAMDYWGQGTSVTVSS
VL: DVQMTQTTSSLSASLGDRVTISCRASQDISKFLNWYQQKPDGTVTLLIYYTSRLHSGVPSRFSGSGSGTDYSLTISNLDQEDIATYFCQQGNTLPWTFGGGTKLEIK
notes: also called parental chimeric 45G10
Kd [3]: 37 nM
koff [3]: 0.015 s⁻¹
kon [3]: 410000 M⁻¹ s⁻¹
Kd [4]: 0.14 nM
koff [4]: 0.00034 s⁻¹
kon [4]: 2.3e+06 M⁻¹ s⁻¹

B11: Hz45G10 A2/A4 (antibody, V domains shown)
VH: EVQLVESGGGLVQPGGSLRLSCAASGFTFSDYGMHWVRQAPGKGLEWVAYIFSGSSTIYYADTVKGRFTISRDNAKNSLYLQMNSLRAEDTAVYYCARADGRGAMDYWGQGTTVTVSS
VL: DIQMTQSPSSLSASVGDRVTITCRASQDISKFLNWYQQKPGKAPKLLIYYTSRLHSGVPSRFSGSGSGTDFTFTISSLQPEDIATYFCQQGNTLPWTFGGGTKLEIK
Kd [3]: 113 nM
koff [3]: 0.02 s⁻¹
kon [3]: 190000 M⁻¹ s⁻¹
Kd [4]: 0.2 nM
koff [4]: 0.00028 s⁻¹
kon [4]: 1.4e+06 M⁻¹ s⁻¹

B12: anti-ILT3 antibody 45G10 (antibody, V domains shown)
VH: EVQLVESGGGLVKPGGSLKLSCAASGFTFSDYGMHWVRQAPEKGLEWVAYIFSGSSTIYYADTVKGRFTISRDNAKNTLFLQMTSLRSEDTAMYYCARADGRGAMDYWGQGTSVTVSS
VL: DVQMTQTTSSLSASLGDRVTISCRASQDISKFLNWYQQKPDGTVTLLIYYTSRLHSGVPSRFSGSGSGTDYSLTISNLDQEDIATYFCQQGNTLPWTFGGGTKLEIK
notes: as for B1
Kd [1]: 5 nM
koff [1]: 0.00076 s⁻¹
kon [1]: 150000 M⁻¹ s⁻¹
Kd [2]: 0.13 nM
koff [2]: 5.1e-05 s⁻¹
kon [2]: 390000 M⁻¹ s⁻¹

B13: Hz45G10 B1/A4 (antibody, V domains shown)
VH: EVQLVESGGGLVKPGGSLRLSCAASGFTFSDYGMHWVRQAPGKGLEWVSYIFSGSSTIYYADTVKGRFTISRDNAKNSLYLQMNSLRAEDTAVYYCARADGRGAMDYWGQGTLVTVSS
VL: DIQMTQSPSSLSASVGDRVTITCRASQDISKFLNWYQQKPGKAPKLLIYYTSRLHSGVPSRFSGSGSGTDFTFTISSLQPEDIATYFCQQGNTLPWTFGGGTKLEIK
Kd [3]: 76 nM
koff [3]: 0.09 s⁻¹
kon [3]: 1.2e+06 M⁻¹ s⁻¹
Kd [4]: 0.2 nM
koff [4]: 0.00026 s⁻¹
kon [4]: 1.3e+06 M⁻¹ s⁻¹
